Measurements published in patent publication US8735553 (BEIGENE SWITZERLAND, dated 2014).
Where two headings read alike, the source gives them in different places.

Columns and labels:
[1] = molecular target: P3Z chimeric PD-1 receptor (human); test: cell-based or functional assay
[2] = molecular target: T1, human PD-1 expressed on cells (human, UniProt Q15116 25-288); test: cell-based or functional assay
[3] = molecular target: P3Z chimeric PD-1 receptor (human); test: cell-based or functional assay; remark: listed apart in the source
[4] = molecular target: T1, human PD-1 expressed on cells; test: FACS on PD-1-expressing cells

T1 sequence (Q15116 25-288): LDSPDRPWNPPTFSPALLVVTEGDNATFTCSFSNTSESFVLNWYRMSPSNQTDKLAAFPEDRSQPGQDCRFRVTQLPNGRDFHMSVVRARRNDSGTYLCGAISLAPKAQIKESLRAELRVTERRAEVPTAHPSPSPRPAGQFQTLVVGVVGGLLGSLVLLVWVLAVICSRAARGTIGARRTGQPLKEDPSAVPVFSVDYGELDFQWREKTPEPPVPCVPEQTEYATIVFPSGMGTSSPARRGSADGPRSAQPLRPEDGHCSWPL
P3Z chimeric PD-1 receptor (human), sequence (chain, as listed by the source mutant limits assumed): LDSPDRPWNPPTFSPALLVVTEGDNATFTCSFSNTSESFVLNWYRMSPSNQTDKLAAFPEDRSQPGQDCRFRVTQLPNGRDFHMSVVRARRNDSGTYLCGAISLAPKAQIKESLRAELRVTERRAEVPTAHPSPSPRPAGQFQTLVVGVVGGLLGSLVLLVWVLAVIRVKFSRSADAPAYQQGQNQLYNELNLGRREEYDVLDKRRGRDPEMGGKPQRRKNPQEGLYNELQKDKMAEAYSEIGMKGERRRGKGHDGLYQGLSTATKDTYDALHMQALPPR

| Binder | IL-2 release in HuT78/P3Z, EC50 [1] | IL-2 release in HuT78/P3Z, Max inhibition [1] | IL-2 release in HuT78/PD-1, EC50 [2] | IL-2 release in HuT78/PD-1, Top line [2] | IL-2 release in HuT78/P3Z, IC50 [3] | IL-2 release in HuT78/P3Z, Max inhibition [3] | EC50 [4] |
| --- | --- | --- | --- | --- | --- | --- | --- |
| Fab hu317-1_Vh / hu317-1_Vκ (Fab, V domains shown) VH: QVQLQESGPGLVKPSETLSLTCTVSGFSLTSYGVHWIRQPPGKGLEWLGVIWAGGSTNYNPSLKSRLTISKDNSKSQVSLKMSSVTAADTAVYYCARAYGNYWYIDVWGQGTTVTVSS VL: DIVMTQSPDSLAVSLGERATINCKASQSVSNDVAWYQQKPGQPPKLLINYAFHRFTGVPDRFSGSGYGTDFTLTISSLQAEDVAVYYCHQAYSSPYTFGGGTKLEIK | 0.3 µg/mL | 98.8% | – | – | – | – | – |
| Fab hu317-1_Vh / HU317-2_G100Q (Fab, V domains shown) VH: QVQLQESGPGLVKPSETLSLTCTVSGFSLTSYGVHWIRQPPGKGLEWLGVIWAGGSTNYNPSLKSRLTISKDNSKSQVSLKMSSVTAADTAVYYCARAYGNYWYIDVWGQGTTVTVSS VL: DIVMTQSPDSLAVSLGERATINCKASQSVSNDVAWYQQKPGQPPKLLINYAFHRFTGVPDRFSGSGYGTDFTLTISSLQAEDVAVYYCHQAYSSPYTFGQGTKLEIK | 0.27 µg/mL | 98.9% | – | – | – | – | – |
| Fab hu317-2_N73T / hu317-1_Vκ (Fab, V domains shown) VH: QVQLQESGPGLVKPSETLSLTCTVSGFSLTSYGVHWIRQPPGKGLEWLGVIWAGGSTNYNPSLKSRLTISKDTSKSQVSLKMSSVTAADTAVYYCARAYGNYWYIDVWGQGTTVTVSS VL: DIVMTQSPDSLAVSLGERATINCKASQSVSNDVAWYQQKPGQPPKLLINYAFHRFTGVPDRFSGSGYGTDFTLTISSLQAEDVAVYYCHQAYSSPYTFGGGTKLEIK | 0.31 µg/mL | 98.3% | – | – | – | – | – |
| Fab hu317-3A / hu317-1_Vκ (Fab, V domains shown) VH: QVQLQESGPGLVKPSETLSLTCTVSGFSLTSYGVHWIRQPPGKGLEWIGVIWAGGSTNYNPSLKSRVTISVDTSKNQFSLKLSSVTAADTAVYYCARAYGNYWYIDVWGQGTTVTVSS VL: DIVMTQSPDSLAVSLGERATINCKASQSVSNDVAWYQQKPGQPPKLLINYAFHRFTGVPDRFSGSGYGTDFTLTISSLQAEDVAVYYCHQAYSSPYTFGGGTKLEIK | 0.35 µg/mL | 79.7% | – | – | – | – | – |
| Fab hu317-2_L67V / hu317-1_Vκ (Fab, V domains shown) VH: QVQLQESGPGLVKPSETLSLTCTVSGFSLTSYGVHWIRQPPGKGLEWLGVIWAGGSTNYNPSLKSRVTISKDNSKSQVSLKMSSVTAADTAVYYCARAYGNYWYIDVWGQGTTVTVSS VL: DIVMTQSPDSLAVSLGERATINCKASQSVSNDVAWYQQKPGQPPKLLINYAFHRFTGVPDRFSGSGYGTDFTLTISSLQAEDVAVYYCHQAYSSPYTFGGGTKLEIK | 0.3 µg/mL | 98.6% | – | – | – | – | – |
| Fab hu317-2_V78F / hu317-1_Vκ (Fab, V domains shown) VH: QVQLQESGPGLVKPSETLSLTCTVSGFSLTSYGVHWIRQPPGKGLEWLGVIWAGGSTNYNPSLKSRLTISKDNSKSQFSLKMSSVTAADTAVYYCARAYGNYWYIDVWGQGTTVTVSS VL: DIVMTQSPDSLAVSLGERATINCKASQSVSNDVAWYQQKPGQPPKLLINYAFHRFTGVPDRFSGSGYGTDFTLTISSLQAEDVAVYYCHQAYSSPYTFGGGTKLEIK | 0.38 µg/mL | 98% | – | – | – | – | – |
| Fab hu317-2_M82L / hu317-1_Vκ (Fab, V domains shown) VH: QVQLQESGPGLVKPSETLSLTCTVSGFSLTSYGVHWIRQPPGKGLEWLGVIWAGGSTNYNPSLKSRLTISKDNSKSQVSLKLSSVTAADTAVYYCARAYGNYWYIDVWGQGTTVTVSS VL: DIVMTQSPDSLAVSLGERATINCKASQSVSNDVAWYQQKPGQPPKLLINYAFHRFTGVPDRFSGSGYGTDFTLTISSLQAEDVAVYYCHQAYSSPYTFGGGTKLEIK | 0.27 µg/mL | 98.5% | – | – | – | – | – |
| Fab hu317-2_K71V / hu317-1_Vκ (Fab, V domains shown) VH: QVQLQESGPGLVKPSETLSLTCTVSGFSLTSYGVHWIRQPPGKGLEWLGVIWAGGSTNYNPSLKSRLTISVDNSKSQVSLKMSSVTAADTAVYYCARAYGNYWYIDVWGQGTTVTVSS VL: DIVMTQSPDSLAVSLGERATINCKASQSVSNDVAWYQQKPGQPPKLLINYAFHRFTGVPDRFSGSGYGTDFTLTISSLQAEDVAVYYCHQAYSSPYTFGGGTKLEIK | 0.48 µg/mL | 96.5% | – | – | – | – | – |
| Fab hu317-2_S76N / hu317-1_Vκ (Fab, V domains shown) VH: QVQLQESGPGLVKPSETLSLTCTVSGFSLTSYGVHWIRQPPGKGLEWLGVIWAGGSTNYNPSLKSRLTISKDNSKNQVSLKMSSVTAADTAVYYCARAYGNYWYIDVWGQGTTVTVSS VL: DIVMTQSPDSLAVSLGERATINCKASQSVSNDVAWYQQKPGQPPKLLINYAFHRFTGVPDRFSGSGYGTDFTLTISSLQAEDVAVYYCHQAYSSPYTFGGGTKLEIK | 0.28 µg/mL | 98.6% | – | – | – | – | – |
| Fab hu317-2_L48I / hu317-1_Vκ (Fab, V domains shown) VH: QVQLQESGPGLVKPSETLSLTCTVSGFSLTSYGVHWIRQPPGKGLEWIGVIWAGGSTNYNPSLKSRLTISKDNSKSQVSLKMSSVTAADTAVYYCARAYGNYWYIDVWGQGTTVTVSS VL: DIVMTQSPDSLAVSLGERATINCKASQSVSNDVAWYQQKPGQPPKLLINYAFHRFTGVPDRFSGSGYGTDFTLTISSLQAEDVAVYYCHQAYSSPYTFGGGTKLEIK | 0.37 µg/mL | 98.5% | – | – | – | – | – |
| hu326-2 E46K (antibody, V domains shown, mAb; constant regions not restated (hu326-1 is IgG2 / kappa); Back mutation to murine) VH: QVQLVQSGSELKKPGASVKVSCKASGYTFTNYGMNWVRQAPGQGLKWMGWINNNNGEPTYAQGFRGRFVFSLDTSASTAYLQISSLKTEDTAVYFCARDVMDYWGQGTTVTVSS VL: DIVLTQSPASLAVSPGQRATITCRASESVDNYGYSFMHWYQQKPGQPPKLLIYRASNLESGVPARFSGSGSRTDFTLTINPVEANDTANYYCQQSKEYPTFGGGTKVEIK | – | – | 0.259 µg/mL | 1240 pg/mL | 0.079 µg/mL | 95.2% | 0.132 µg/mL |
| hu326-2 F95Y (antibody, V domains shown, mAb; constant regions not restated (hu326-1 is IgG2 / kappa); Forward mutation to human) VH: QVQLVQSGSELKKPGASVKVSCKASGYTFTNYGMNWVRQAPGQGLEWMGWINNNNGEPTYAQGFRGRFVFSLDTSASTAYLQISSLKTEDTAVYYCARDVMDYWGQGTTVTVSS VL: DIVLTQSPASLAVSPGQRATITCRASESVDNYGYSFMHWYQQKPGQPPKLLIYRASNLESGVPARFSGSGSRTDFTLTINPVEANDTANYYCQQSKEYPTFGGGTKVEIK | – | – | 0.135 µg/mL | 1030 pg/mL | 0.166 µg/mL | 95.6% | 0.097 µg/mL |
| hu326-2 T88N (antibody, V domains shown, mAb; constant regions not restated (hu326-1 is IgG2 / kappa); Back mutation to murine) VH: QVQLVQSGSELKKPGASVKVSCKASGYTFTNYGMNWVRQAPGQGLEWMGWINNNNGEPTYAQGFRGRFVFSLDTSASTAYLQISSLKNEDTAVYFCARDVMDYWGQGTTVTVSS VL: DIVLTQSPASLAVSPGQRATITCRASESVDNYGYSFMHWYQQKPGQPPKLLIYRASNLESGVPARFSGSGSRTDFTLTINPVEANDTANYYCQQSKEYPTFGGGTKVEIK | – | – | – | – | 0.102 µg/mL | 95.8% | 0.098 µg/mL |
| hu326-2 A76V (antibody, V domains shown, mAb; constant regions not restated (hu326-1 is IgG2 / kappa); Forward mutation to human) VH: QVQLVQSGSELKKPGASVKVSCKASGYTFTNYGMNWVRQAPGQGLEWMGWINNNNGEPTYAQGFRGRFVFSLDTSVSTAYLQISSLKTEDTAVYFCARDVMDYWGQGTTVTVSS VL: DIVLTQSPASLAVSPGQRATITCRASESVDNYGYSFMHWYQQKPGQPPKLLIYRASNLESGVPARFSGSGSRTDFTLTINPVEANDTANYYCQQSKEYPTFGGGTKVEIK | – | – | 0.112 µg/mL | 1000 pg/mL | 0.071 µg/mL | 96.7% | 0.102 µg/mL |
| hu326-2 A16E (antibody, V domains shown, mAb; constant regions not restated (hu326-1 is IgG2 / kappa); Back mutation to murine) VH: QVQLVQSGSELKKPGESVKVSCKASGYTFTNYGMNWVRQAPGQGLEWMGWINNNNGEPTYAQGFRGRFVFSLDTSASTAYLQISSLKTEDTAVYFCARDVMDYWGQGTTVTVSS VL: DIVLTQSPASLAVSPGQRATITCRASESVDNYGYSFMHWYQQKPGQPPKLLIYRASNLESGVPARFSGSGSRTDFTLTINPVEANDTANYYCQQSKEYPTFGGGTKVEIK | – | – | 0.126 µg/mL | 1050 pg/mL | 0.078 µg/mL | 96.3% | 0.155 µg/mL |
| hu326-2 S9P (antibody, V domains shown, mAb; constant regions not restated (hu326-1 is IgG2 / kappa); Back mutation to murine) VH: QVQLVQSGPELKKPGASVKVSCKASGYTFTNYGMNWVRQAPGQGLEWMGWINNNNGEPTYAQGFRGRFVFSLDTSASTAYLQISSLKTEDTAVYFCARDVMDYWGQGTTVTVSS VL: DIVLTQSPASLAVSPGQRATITCRASESVDNYGYSFMHWYQQKPGQPPKLLIYRASNLESGVPARFSGSGSRTDFTLTINPVEANDTANYYCQQSKEYPTFGGGTKVEIK | – | – | 0.136 µg/mL | 1020 pg/mL | 0.075 µg/mL | 96% | 0.145 µg/mL |
| hu326-2 G63D (antibody, V domains shown, mAb; constant regions not restated (hu326-1 is IgG2 / kappa); Back mutation to murine) VH: QVQLVQSGSELKKPGASVKVSCKASGYTFTNYGMNWVRQAPGQGLEWMGWINNNNGEPTYAQDFRGRFVFSLDTSASTAYLQISSLKTEDTAVYFCARDVMDYWGQGTTVTVSS VL: DIVLTQSPASLAVSPGQRATITCRASESVDNYGYSFMHWYQQKPGQPPKLLIYRASNLESGVPARFSGSGSRTDFTLTINPVEANDTANYYCQQSKEYPTFGGGTKVEIK | – | – | 0.12 µg/mL | 1070 pg/mL | 0.064 µg/mL | 96.4% | 0.139 µg/mL |
